Changes are numbered by the printed parent chain. Numbers in names are those of the source.
B1: MA 88-B3-F9 CC (Y4E) (antibody, V domains shown)
VH: QVQLVESGGGLVKPGGSLRLSCAASGFTFSDYYMSWIRQAPGKCLEWVSYISKSSYTVTYADAVKGRFTISRDNAKNSLYLQMNSLRAEDTAVYYCATYNYGHFDYWGQGTLVTVSS
VL: SYVLTQPPSVSVAPGQTARITCGGNNIGSKSVHWYQQKPGQAPVLVVYDDADRPSGIPERFSGSNSGNTATLTISRVEAGDEADYYCQVWDASAGYGVVFGCGTKLTVL
B2: MA 09-G10 CC (C4K) (antibody, V domains shown)
VH: QITLKESGPTLVKPTQTLTLTCTFSGFSFTTHKMGVDWIRQPPGKCLEWLAGIHIYDDKRYSPSLQSRLTITKDTSKNQVVLTMTNMDPVDTATYYCAYRRYNWNYENWFDPWGQGTLVTVSS
VL: DIQMTQSPSSLSASVGDRVTITCQASQDISNYFNWYQQKPGKAPKLLIYAASSLQSGVPSRFSGSGSGTDFTLTISSLQPEDFATYYCQQSYITPFTFGCGTKVEIK
B3: MA 09-F11 CC (L6Q) (antibody, V domains shown)
VH: B2 VH with T10M, G52L, H54Y, I55W, Y56N
VL: B2 VL with S9D, F33L, I93M, T94W, F96T, T97I
B4: MA 09-H10 CC (B6N) (antibody, V domains shown)
VH: B2 VH with G52L, H54Y, I55W, Y56N
VL: B2 VL with F33L, S65R, I93T, T94P, F96T
B5: MA 09-H11 CC (I8L) (antibody, V domains shown)
VH: B2 VH with G52L, H54Y, I55W, Y56N
VL: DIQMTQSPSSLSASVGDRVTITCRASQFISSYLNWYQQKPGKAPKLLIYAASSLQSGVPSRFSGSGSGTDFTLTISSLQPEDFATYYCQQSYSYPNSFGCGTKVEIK
B6: MA 09-F12 CC (D1U) (antibody, V domains shown)
VH: B2 VH with T10A, G52L, H54Y, I55W, Y56N
VL: B2 VL with F33L, S65R, I93Y, T94Y, F96T, T97L
B7: MA 81-B9 CC (U4L) (antibody, V domains shown)
VH: QVQLQESGPGLVKPSETLSLTCTVSGDSISSSRYYWGWIRQPPGKCLEWIGSIYYSGSTYYNPSLKSRVTISVDTSKNQFSLKLSSVTAADTAVYYCARGIFGVITYFDYWGQGTLVTVSS
VL: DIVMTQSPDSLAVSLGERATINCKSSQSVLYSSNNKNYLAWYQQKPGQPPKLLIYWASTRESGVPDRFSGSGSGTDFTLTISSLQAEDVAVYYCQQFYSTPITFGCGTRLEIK
B8: MA 03-G10_AS CC (N3H) (antibody, V domains shown)
VH: EVQLLESGGGLVQPGGSLRLSCAASGFTFSSYAMSWVRQAPGKCLEWVSAISGSGGGTYYAASVKGRFTISRDNSKNTLYLQMSSLRAEDTAVYYCATGKGVHLGFDYWGQGTLVTVSS
VL: SYVLTQPPSVSVAPGQTARITCGGNNIGSKSVHWYQQKPGQAPVMVVYDDNDRPSGIPERFSGSNSGNTATLTISRVEAGDEADYYCQVWDYSGQRQVFGCGTKLTVL
B9: MA 10-G10 AS CC (T1I) (antibody, V domains shown)
VH: B8 VH with Y32H, Y60N, S84N
VL: B8 VL with S93V, G94A, Q95P, Q97H
B10: MA 98-C7 CC (Y8P) (antibody, V domains shown)
VH: B8 VH with Y32H, A50S, S84N
VL: B8 VL with G94P, Q95L, Q97H
B11: MA 98-G12_AS CC (Q4Z) (antibody, V domains shown)
VH: B8 VH with Y32H, Y60N, S84N, V93A, A97V
VL: B8 VL with S66F, T73I, S93F, G94S, Q95M, R96T, Q97H
B12: MA 03-D8 AS CC (L7E) (antibody, V domains shown)
VH: B8 VH with Y32H, A50T, S84N
VL: B8 VL with S66F, T73I, S93R, G94T, Q95L, R96D, Q97W
B13: MA 10-H1 CC (T9K) (antibody, V domains shown)
VH: EVQLVESGGGLVQPGGSLRLSCAASGFTFSNAWMSWVRQAPGKCLEWVGRITSGIYGGTTDYAAPVKGRFTISRDDSKNTLYLQMNSLKTEDTAVYYCTTPSYSGSYYNYFSVMDVWGQGTTVTVSS
VL: DIQMTQSPSSLSASVGDRVTITCRTSQSISSYLNWYQQKPGRAPKLLIFAASSLQSGVPSRFSGSGSGTDFTLTISSLQPEDFATYYCQQTYSMPFTFGCGTKVDIK
B14: MA 09-C7 CC (K9T) (antibody, V domains shown)
VH: B2 VH with I2V, T10A, G52E, I55S, Y56E
VL: B2 VL with Q24R, D28S
B15: MA 09-G11 CC (Y9Q) (antibody, V domains shown)
VH: B2 VH with T10M, G52L, H54Y, I55W, Y56N
VL: B2 VL with Q24R, D28F, N31S, F33L, S65R, I93Q, T94S, F96T
B16: MA 10-B5 CC (H6H) (antibody, V domains shown)
VH: B13 VH with T52R, G54R, I55S, Y82F
VL: B13 VL with S56G, D105E
B17: MA 09-E2 CC (V8T) (antibody, V domains shown)
VH: B13 VH with T52K, G54K, I55T, Y82F
VL: B13 VL with S56G, T91S, M94S, D105E
B18: MA SG-F28 CC (D9R) (antibody, V domains shown)
VH: QVQLQESGPGLVKPSQTLSLTCTVSGDSISSNPYYWSWIRQHPGKCLEWIGYISYSGITNYNPSLKSRVTMSVDTSKNQFSLKLTSLTAADTAVYYCAREKMWFGVLNYYYGMDVWGQGTTVTVSS
VL: DIVMTQTPLSLPVTPGEPASISCRSSQSLLHRSGYNYLDWYLQKPGQSPQLLIYLGSNRASGVPDRFSGSGSGTDFTLKISRVEAGDVGVYYCMQALQTPWTFGCGTKVEIK

Target: MAGEB2 peptide … / HLA-A*02:01 / b2m (human)
Test: FACS

Kd	Binder
74100 pM	B1
800 pM	B2
600 pM	B3
600 pM	B4
500 pM	B5
500 pM	B6
18800 pM	B7
900 pM	B8
1700 pM	B9
700 pM	B10
900 pM	B11
500 pM	B12
1200 pM	B13
900 pM	B14
600 pM	B15
700 pM	B16
700 pM	B17
76800 pM	B18

— patent US12312412 (dated 2025)
